Source: EP4684807A1, “LINKER AND USE THEREOF IN LIGAND DRUG CONJUGATE” (priority 2023, dated 2024)

T1: ADAM9 on ADAM9-positive cells (Calu-3, Ls174T) (UniProt Q13443 29-819, limits assumed)
T1 sequence (looked up): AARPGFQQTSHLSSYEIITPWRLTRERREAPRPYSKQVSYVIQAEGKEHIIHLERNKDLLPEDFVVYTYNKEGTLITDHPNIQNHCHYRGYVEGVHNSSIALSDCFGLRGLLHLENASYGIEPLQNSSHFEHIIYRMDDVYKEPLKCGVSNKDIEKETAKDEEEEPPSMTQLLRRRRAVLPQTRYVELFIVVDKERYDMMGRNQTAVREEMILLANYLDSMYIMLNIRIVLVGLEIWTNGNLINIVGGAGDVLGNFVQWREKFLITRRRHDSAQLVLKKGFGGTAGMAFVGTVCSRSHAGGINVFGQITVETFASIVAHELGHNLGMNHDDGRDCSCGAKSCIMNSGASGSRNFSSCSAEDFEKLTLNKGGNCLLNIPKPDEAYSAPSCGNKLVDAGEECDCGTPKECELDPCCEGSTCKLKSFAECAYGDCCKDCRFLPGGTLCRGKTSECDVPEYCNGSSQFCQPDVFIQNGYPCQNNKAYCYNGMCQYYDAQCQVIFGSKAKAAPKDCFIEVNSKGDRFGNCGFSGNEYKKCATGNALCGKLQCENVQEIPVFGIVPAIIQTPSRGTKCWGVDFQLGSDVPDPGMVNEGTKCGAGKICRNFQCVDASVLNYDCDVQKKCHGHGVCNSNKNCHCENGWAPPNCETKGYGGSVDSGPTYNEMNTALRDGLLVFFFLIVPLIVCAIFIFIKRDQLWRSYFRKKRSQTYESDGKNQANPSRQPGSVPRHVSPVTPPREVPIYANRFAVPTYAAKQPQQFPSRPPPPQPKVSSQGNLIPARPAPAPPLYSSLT


Target: T1, ADAM9 on ADAM9-positive cells (Calu-3, …)
Assay: cell-based or functional assay

Row | Binder | IC50 (nM), inhibition of cell proliferation, Calu-3 cells, CellTiter-Glo, 6 days [nM] | IC50 (nM), inhibition of cell proliferation, Ls174T cells, CellTiter-Glo, 6 days [nM]
1 | ADC-3D-1 (Reference ADC-22C) (antibody, human IgG1, kappa, V domains shown, control linker-payload conjugated to antibody thiols after TCEP reduction; DAR (k) 7.5 for the whole antibody) VH: QVQLQQPGTEVVKPGASVKLSCKASGFTFPLYWMHWVRQRPGRGLEWIGRIIPIFGHTKYNEKFKNKATLTADESSSTAYMELRSLTSDDSAVYYCARGGYYYYPREGFLDYWGQGTSVTVSS VL: DIVMTQSPASLSVSPGERASISCRSSQSVDYSGDSYMNWYQQKPGQSPRLLIYAASDRESGVPDRFSGSGSGTDFTLKISRVEEEDAGTYYCQQSREDPFTFGQGTKVDIKR | 0.34 | 
2 | ADC-2D-1 (Reference ADC-20C) (antibody, human IgG1, kappa, V domains shown, control linker-payload conjugated to antibody thiols after TCEP reduction; DAR (k) 4.3 for the whole antibody) VH: QVQLQQPGTEVVKPGASVKLSCKASGFTFPLYWMHWVRQRPGRGLEWIGRIIPIFGHTKYNEKFKNKATLTADESSSTAYMELRSLTSDDSAVYYCARGGYYYYPREGFLDYWGQGTSVTVSS VL: DIVMTQSPASLSVSPGERASISCRSSQSVDYSGDSYMNWYQQKPGQSPRLLIYAASDRESGVPDRFSGSGSGTDFTLKISRVEEEDAGTYYCQQSREDPFTFGQGTKVDIKR |  | 27.1
3 | ADC-4D-1 (Reference ADC-22C) (antibody, human IgG1, kappa, V domains shown, control linker-payload conjugated to antibody thiols after TCEP reduction; DAR (k) 7.6 for the whole antibody) VH: QVQLQQPGTEVVKPGASVKLSCKASGFTFPLYWMHWVRQRPGRGLEWIGRIIPIFGHTKYNEKFKNKATLTADESSSTAYMELRSLTSDDSAVYYCARGGYYYYPREGFLDYWGQGTSVTVSS VL: DIVMTQSPASLSVSPGERASISCRSSQSVDYSGDSYMNWYQQKPGQSPRLLIYAASDRESGVPDRFSGSGSGTDFTLKISRVEEEDAGTYYCQQSREDPFTFGQGTKVDIKR | 0.78 | 
4 | ADC-1D-1 (Reference ADC-20C) (antibody, human IgG1, kappa, V domains shown, control linker-payload conjugated to antibody thiols after TCEP reduction; DAR (k) 4.4 for the whole antibody) VH: QVQLQQPGTEVVKPGASVKLSCKASGFTFPLYWMHWVRQRPGRGLEWIGRIIPIFGHTKYNEKFKNKATLTADESSSTAYMELRSLTSDDSAVYYCARGGYYYYPREGFLDYWGQGTSVTVSS VL: DIVMTQSPASLSVSPGERASISCRSSQSVDYSGDSYMNWYQQKPGQSPRLLIYAASDRESGVPDRFSGSGSGTDFTLKISRVEEEDAGTYYCQQSREDPFTFGQGTKVDIKR |  | 15.3
